Experimental data taken from patent publication US20120316071A1 (published 2012).
Where a chain is given by its changes, count along the chain named. Numbers in names are those of the source.

Tests used:
[1] = molecular target: T1, rHuman ErbB2/Fc Chimera, CF (R&D Systems Cat#1129-ER) (human, UniProt P04626 23-652); assay: MSD multispot ECL, antigen spotted on plate, Fab in solution; blank spot of this row 407
T1 construct: Bought recombinant protein; Fc part of the bought chimera not given

[2] = molecular target: T2, rHuman HGF R/c-MET/Fc Chimera, CF (R&D Systems Cat#358-MT/CF) (human, UniProt P08581 25-932); assay: as above
T2 construct: Bought recombinant protein; also called HGF R/Fc; Fc part of the bought chimera not given
T2 sequence (P08581 25-932, change not shown): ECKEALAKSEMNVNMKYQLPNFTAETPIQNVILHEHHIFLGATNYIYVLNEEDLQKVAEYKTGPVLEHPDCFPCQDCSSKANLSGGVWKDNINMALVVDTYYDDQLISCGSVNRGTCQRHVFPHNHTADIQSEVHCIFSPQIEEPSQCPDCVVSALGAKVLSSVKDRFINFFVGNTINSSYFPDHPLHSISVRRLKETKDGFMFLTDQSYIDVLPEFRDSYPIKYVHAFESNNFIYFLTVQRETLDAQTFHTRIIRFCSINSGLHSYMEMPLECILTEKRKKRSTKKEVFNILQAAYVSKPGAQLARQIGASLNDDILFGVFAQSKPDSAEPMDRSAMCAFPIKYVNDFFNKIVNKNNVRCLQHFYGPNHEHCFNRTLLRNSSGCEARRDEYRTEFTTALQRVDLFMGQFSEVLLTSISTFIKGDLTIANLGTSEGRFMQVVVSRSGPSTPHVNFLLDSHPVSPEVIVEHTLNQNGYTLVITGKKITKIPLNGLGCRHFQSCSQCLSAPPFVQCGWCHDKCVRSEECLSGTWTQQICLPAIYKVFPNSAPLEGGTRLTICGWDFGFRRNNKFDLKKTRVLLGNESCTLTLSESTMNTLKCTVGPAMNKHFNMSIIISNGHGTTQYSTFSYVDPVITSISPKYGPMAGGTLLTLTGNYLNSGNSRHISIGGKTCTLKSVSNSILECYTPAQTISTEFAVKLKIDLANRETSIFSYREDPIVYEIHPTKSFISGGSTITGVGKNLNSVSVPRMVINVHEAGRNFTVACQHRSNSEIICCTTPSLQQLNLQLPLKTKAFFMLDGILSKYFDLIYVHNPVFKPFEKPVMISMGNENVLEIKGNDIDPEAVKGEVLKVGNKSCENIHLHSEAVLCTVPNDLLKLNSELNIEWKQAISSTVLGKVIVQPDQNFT

[3] = molecular target: T3, rHuman IGF-1 sR (insulin-like growth factor-1 soluble receptor), CF (R&D Systems Cat#391-GR) (human, UniProt P08069 31-932); assay: as above
T3 construct: Bought recombinant soluble receptor; The column head prints only 'IGF-1'

[4] = molecular target: T4, Recombinant Human DLL4 (R&D Systems Cat#1506-D4/CF) (human, UniProt Q9NR61 27-524); assay: as above
T4 construct: Bought recombinant protein; also called delta-like protein 4; rHuman DLL4

[5] = molecular target: T5, rHuman P-Cadherin/Fc Chimera, CF (R&D Systems Cat#861-PC) (human, UniProt P22223 108-654); assay: as above
T5 construct: Bought recombinant protein; Fc part of the bought chimera not given

[6] = molecular target: T6, rHuman EGF R/Fc Chimera, CF (R&D Systems Cat#344-ER) (human, UniProt P00533 25-645); assay: as above
T6 construct: Bought recombinant protein; Fc part of the bought chimera not given

[7] = molecular target: T1, rHuman ErbB2/Fc Chimera, CF (R&D …); assay: MSD multispot ECL, antigen spotted on plate, Fab in solution; blank spot of this row 254
[8] = molecular target: T2, rHuman HGF R/c-MET/Fc Chimera, CF (R&D …); assay: as above
[9] = molecular target: T3, rHuman IGF-1 sR (insulin-like growth …); assay: as above
[10] = molecular target: T4, Recombinant Human DLL4 (R&D Systems …); assay: as above
[11] = molecular target: T5, rHuman P-Cadherin/Fc Chimera, CF (R&D …); assay: as above
[12] = molecular target: T6, rHuman EGF R/Fc Chimera, CF (R&D …); assay: as above
[13] = molecular target: T1, rHuman ErbB2/Fc Chimera, CF (R&D …); assay: MSD multispot ECL, antigen spotted on plate, Fab in solution; blank spot of this row 338
[14] = molecular target: T2, rHuman HGF R/c-MET/Fc Chimera, CF (R&D …); assay: as above
[15] = molecular target: T3, rHuman IGF-1 sR (insulin-like growth …); assay: as above
[16] = molecular target: T4, Recombinant Human DLL4 (R&D Systems …); assay: as above
[17] = molecular target: T5, rHuman P-Cadherin/Fc Chimera, CF (R&D …); assay: as above
[18] = molecular target: T6, rHuman EGF R/Fc Chimera, CF (R&D …); assay: as above
[19] = molecular target: T1, rHuman ErbB2/Fc Chimera, CF (R&D …); assay: MSD multispot ECL, antigen spotted on plate, Fab in solution; blank spot of this row 184
[20] = molecular target: T2, rHuman HGF R/c-MET/Fc Chimera, CF (R&D …); assay: as above
[21] = molecular target: T3, rHuman IGF-1 sR (insulin-like growth …); assay: as above
[22] = molecular target: T4, Recombinant Human DLL4 (R&D Systems …); assay: as above
[23] = molecular target: T5, rHuman P-Cadherin/Fc Chimera, CF (R&D …); assay: as above
[24] = molecular target: T6, rHuman EGF R/Fc Chimera, CF (R&D …); assay: as above
[25] = molecular target: T7, rHuman CD44/Fc Chimera, CF (R&D Systems Cat#3660-CD) (human, UniProt P16070 21-220); assay: MSD multispot ECL, antigen spotted on plate, Fab in solution; blank spot of this row 440
T7 construct: Bought recombinant protein; Fc part of the bought chimera not given

[26] = molecular target: T1, rHuman ErbB2/Fc Chimera, CF (R&D …); assay: as above
[27] = molecular target: T2, rHuman HGF R/c-MET/Fc Chimera, CF (R&D …); assay: as above
[28] = molecular target: T8, rHuman Erythropoietin R/Fc Chimera, CF (R&D Systems Cat#963-ER) (human, UniProt P19235 25-250); assay: as above
T8 construct: Bought recombinant protein; also called EPO R; Epo R/Fc; Fc part of the bought chimera not given
T8 sequence (looked up): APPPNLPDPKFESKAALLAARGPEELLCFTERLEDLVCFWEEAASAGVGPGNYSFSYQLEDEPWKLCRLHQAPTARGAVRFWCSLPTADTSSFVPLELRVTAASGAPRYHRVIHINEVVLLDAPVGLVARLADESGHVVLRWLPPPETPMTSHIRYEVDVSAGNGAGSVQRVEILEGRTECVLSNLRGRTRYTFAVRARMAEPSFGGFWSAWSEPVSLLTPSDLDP

[29] = molecular target: T3, rHuman IGF-1 sR (insulin-like growth …); assay: as above
[30] = molecular target: T4, Recombinant Human DLL4 (R&D Systems …); assay: as above
[31] = molecular target: T5, rHuman P-Cadherin/Fc Chimera, CF (R&D …); assay: as above
[32] = molecular target: T9, rHuman Notch-1/Fc Chimera, CF (R&D Systems Cat#3647-TK) (human, UniProt P46531 19-526); assay: as above
T9 construct: Bought recombinant protein; Fc part of the bought chimera not given

[33] = molecular target: T6, rHuman EGF R/Fc Chimera, CF (R&D …); assay: as above
[34] = molecular target: T10, Recombinant Human DLL4 (delta-like protein 4) (human, UniProt Q9NR61 27-524); assay: SPR, Fab on recombinant human DLL4; two-site binding, this site 10% by the footnote
T10 construct: Bought recombinant human DLL4 (R&D Systems Cat#1506-D4/CF); also called rHuman DLL4; Delta-like ligand 4

[35] = molecular target: T10, Recombinant Human DLL4 (delta-like …); assay: SPR, Fab on recombinant human DLL4; two-site binding, this site 89% by the footnote
[36] = molecular target: T10, Recombinant Human DLL4 (delta-like …); assay: SPR, Fab on recombinant human DLL4

B1: Fab VH1-46_IGHD6-6*01_IGHJ1*01 S102A/S103P/S104F/H111F (H:APFF) & L6_IGKJ1*01 (Fab, V domains shown)
VH: QVQLVQSGAEVKKPGASVKVSCKASGYTFTSYYMHWVRQAPGQGLEWMGIINPSGGSTSYAQKFQGRVTMTRDTSTSTVYMELSSLRSEDTAVYYCAREEYAPFSAEYFQFWGQGTLVTVSS
VL: not shown
notes: Fab expressed in E. coli from plasmid A (CH1, His6 and Flag tags) and plasmid C (kappa CL); also called wildtype (light chain); H:APFF & L:wt
ECL signal [1]: 292
ECL signal [2]: 237
ECL signal [3]: 357
ECL signal [4]: 126000
ECL signal [5]: 277
ECL signal [6]: 329
ECL signal [7]: 351
ECL signal [8]: 176
ECL signal [9]: 306
ECL signal [10]: 148000
ECL signal [11]: 138
ECL signal [12]: 209
ECL signal [13]: 379
ECL signal [14]: 332
ECL signal [15]: 468
ECL signal [16]: 149000
ECL signal [17]: 399
ECL signal [18]: 425
ECL signal [19]: 322
ECL signal [20]: 263
ECL signal [21]: 173
ECL signal [22]: 132000
ECL signal [23]: 240
ECL signal [24]: 409

B2: Fab VH1-46_IGHD6-6*01_IGHJ1*01 S102A/S103P/S104F/H111F (H:APFF) & L6_IGKJ1*01 S76N (Fab, V domains shown)
VH: B1 VH
VL: EIVLTQSPATLSLSPGERATLSCRASQSVSSYLAWYQQKPGQAPRLLIYDASNRATGIPARFSGSGSGTDFTLTINSLEPEDFAVYYCQQRSNWPPWTFGQGTKVEIKR
notes: Fab expressed in E. coli from plasmid A (heavy chain CH1, His6 and Flag tags) and plasmid C (kappa CL)
ECL signal [25]: 369
ECL signal [26]: 436
ECL signal [27]: 429
ECL signal [28]: 384
ECL signal [29]: 378
ECL signal [30]: 52000
ECL signal [31]: 329
ECL signal [32]: 298
ECL signal [33]: 385

B3: Fab VH1-46_IGHD6-6*01_IGHJ1*01 S102A/S103P/S104F/H111F (APFF) & L6_IGKJ1*01 S28N/S30D/S31H (NDH) (Fab, V domains shown)
VH: B1 VH
VL: B2 VL with S28N, S30D, S31H, N76S
notes: Fab with CH1 (Plasmid A, His6 and Flag tags) and kappa CL (Plasmid C); Some paragraphs print S28D/S30N/S31H for the same NDH chain; also called H:APFF & L:NDH; APFF-NDH
Kd [34]: 14 nM
Kd [35]: 155 nM
koff [36]: 0.0689 s⁻¹
kon [36]: 444000 M⁻¹ s⁻¹
